assay: yeast display, Sf9 membrane polyspecificity reagent, FACS + sequencing; frameworks hold sequencing errors
Outline: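 Genes from sorted yeast were amplified by colony PCR, read by MiSeq 2 × 250 sequencing and filtered on CDR length. These cells carried a synthetic nanobody library in Saccharomyces cerevisiae BJ5465 and were sorted by FACS into low and high (top ~1%) gates on anti-HA and streptavidin fluorescence. Polyreactivity is labelled according to the gate of origin.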

Sequence | polyreactivity (PSR sort gate)
QVQLVESCGGLVQAGGSLRLSCAASGSTFASYAMGWYRQAPGKEREFVAAISRSGGSTYYADSVKGRFTISRDNAKNTVYLQMNSLKPEDTAVYYCAARSPSADEYYYWGQGTQVTVSS | low polyreactivity
QVQLVESCGGLVQAGGSLRLSCAASGSTFEEYAMGWYRQAPGKERELVASIRWSGGRTYYADSVKGRFTISRDNAKNTVYLQMNRLKPEDTAVYYCNKDYYITLHESEGKGGEMDYWGQGTQVTVSS | low polyreactivity
QVQLVESCGGLVQAGGSLRLSCAASGSTFINYAMGWYRQAPGKERELVAAYAYSVKGRFTISRDNAKITVYLQMKSLKPEDTAVYYCNAVTGDWGQGTQVTVSS | low polyreactivity
QVQLVESCGGLVQAGGSLRLSCSASGSTFVINAMGWYRQAPGKERELVAAISSGDNTNYADSVKGRFTISRDNAKNTVYLQMNSLKPEETAVYYCAALPAYLDYGARRSMDYWGQGTQVTVSS | low polyreactivity
QVQLVESCGRLVQAGGSLRISCAASGYTFSYYAMGWYRQAHGKERELVAAINYSGGRTYYADSVKGRFTISRDNAKNNVYLQMNSLKPEDTAVYYCSAYTRNGEYDYWGQGTQVTVSS | high polyreactivity
QVQLVESCRGLVQAGGSLRLICAASGLTFRYYSMGWYRQAPGKERELVASISWCGASTYYADSVKGRFTISRDNAKNTVYLQMISLKPEDTAVYYCNAGYSGSYDYWGQGTQVTVSS | high polyreactivity
QVQLVESDGGLVQAGGSLRLSCAASGIIFGYYVMGWYRPAPGKERELVASITSGGSTNYADSVKGRFTISRDNAKNTVYFQMNSLKPEDTAVYYCAAEERTDTIPGWRYPHDYWGQGTQVTVSS | low polyreactivity
QVQLVESGACLVQAGGRLRLSCAASGRICGLNAMVWYRQAPGKERELVASITYSGGSTYYADSVKGRFTISRDNAKNTVYLQMNSLKPEYTADYYCAADSWYYWYSTYDYWGQGTQVTVSS | high polyreactivity
QVQLVESGACLVQAGGSLRLSCAASGGIFYYYAMGWYRQAPGKERELVAVISPGGGRTYYADSVKGRFTISRDIAKNTVYLQKNSLKPEDTAVYYCARDSPGDGGREVARGSYNYWGQGTQVTVSS | high polyreactivity
QVQLVESGACLVQAGGSLRLSCAASGITLVNYAMGWYRQAPGKERELVAAISASGGSTYYADSVKGRFTISRDNAKNNVYLQMNSLKPEDTAVYYCAAEEEEFIYDYWGQGTQVTVSS | high polyreactivity
QVQLVESGAGIVQAGGSLRLSCAASGLTFTYYAMGWYRQAPGKERELVAAISRSGTGTYYADSVKGRFTISRDNAKNTVYLQMNSLTAEDTAVYYCNAVVRTYGYDYWGQGTQVTVSS | high polyreactivity
QVQLVESGAGIVQAGGSLRLSCAASGRIFSDYTMGWYRQAPGKERELVAAIDWSGGNTYYADSVKGRFTISRDNAKNTVYLQMNSLKPEDTAVYYCNADWTYPSAEREYWGQGTQVTVSS | low polyreactivity
QVQLVESGAGLGQAGGSLRLSCAASGSNDIYAMGWNRQEPGKEREFVAAISYSSGSTYYADSVKGRFTISRDNAKNTVFLQMNSLIPVDTAVYYCAAVWQAGVYRYYYWGQGTQVTVSS | high polyreactivity
QVQLVESGAGLVHAGGSLRLSCAASGRIFGINAMGWYRQAPGKERELVAAINWSGGSTYYADSVKGRFTISRDNAKNTVYLQMNSVKPEDTAVYYCAAQKYKRVGYWGQGTQVTVSS | high polyreactivity
QVQLVESGAGLVHAGGSLRLSCAASGRTFSSNAMGGYRQAPGKERELVAGITWGGGSTYYADSVKGRFTISRDNAKNTVYLQMYSLKPEDTAVYYCAKSAGKRGYQVDYWVQGTQVTVSS | high polyreactivity
QVQLVESGAGLVKAGGSLRLSCAASGIIFGNYAMGLYRQAPGKEREFVAAISGSGDSTYYADSVKGRFTISRDNAKNTVYLQMNSLKPEVTAVYYCAADWTLVYYHEDYWGQGTQVTVSS | high polyreactivity
QVQLVESGAGLVQAAGSLRLSCAASVSTFYTYAMGRYRQAPGKERELVADIRWRGGSTNYADSVKGRFTISRDNAKNTVYLQMNSLTSEDTAVYYCALRYYYYGASYYYWGHGTQVTVSS | high polyreactivity
QVQLVESGAGLVQAGASLRLSCAASGRIFPWNAMGWSRQEPGKERELVAAISFSAGRTYYADSVKGRFTISRDNAKNTVYLQMNSLKPEDTAVYYCNARIGSRWVWTGIICYEYWGKGTQVTVSS | low polyreactivity
QVQLVESGAGLVQAGGSLLLSCAASAFIFTPYTKGWYRQAPGKETELVAAITDGSSTYYADSVKRRFTISRDNAQNTVYVQMNSLKPEDTAVYYCNADTLTTTRRFNPYDYRGQGTQVTVSS | low polyreactivity
QVQLVESGAGLVQAGGSLRISCAASGIIFTYYPMGWYRQAPGKERELVASISSSGTSTYYADSVKGRFTISRDNAKNTVYLQLNSLKPEDTAVYYCAKSYWGDNSGFPGTPYDYWGQGTQVTVSS | low polyreactivity
QVQLVESGAGLVQAGGSLRISCAASGRIFHYALGWYRQAPGKERELVAGISKRGGSTYYADSVKGRFTISRDNAKNTVYLQMNSLKPEDTAVYYCAAGRAYDGTKHDYWGQGTQVTVSS | high polyreactivity
QVQLVESGAGLVQAGGSLRISCAASGRTFGLNDMAWYRPAPGKERELVAAITWSDDDTYYADSVKGRFTISRDNAKNTVYLQMNSLKPEDTAVYYCAKSRYDYTKTECGYWGQGTEVTVSS | low polyreactivity

Sequence | polyreactivity (PSR sort gate)
QVQLVESGAGLVQAGGSLRLCCAASGFIFRVYAMGLYRQAPGKERELVAAISDSGGSTTYADSVKGRFTISRDNAKNTVYLQMNSLKPEDTAVYYCAAKLPRSRYRGVDYWGQGTQVTVSS | low polyreactivity
QVQLVESGAGLVQAGGSLRLSCAASGFAFYLYAMGWYRQAPGIERELVAAISSRGGNTYYADTVKGRFTISRDYAKNTVYLPMISLKPEDNAVYYCAAEFWNWYGDYDYWGQGTQVTVSS | high polyreactivity
QVQLVESGAGLVQAGGSLRLSCAASGFIFAGNAMGWYIQAPGKERELVAAITRRGGSTHYADSVKGRFTISRDKAKNTVYLQMNSLKPEDTAVYYCNAAVQPPLSDYWGQGTQVTVSS | low polyreactivity
QVQLVESGAGLVQAGGSLRLSCAASGFTFYRYAMGWYRQAPGKEREFLAAITASGGSTNYADSVKGRFTISRDNAKNTVYLQMNSLKPEDTAVYYCAARQSRDFRYRGFYYWGQGTQVTVSS | high polyreactivity
QVQLVESGAGLVQAGGSLRLSCAASGIILRYYALGWYRQAPGKERELVAAISSGGRTYYADSVKGRFTISRDNAKNPVNLLMNSLTPEDTEVYSCAADDTRGREEYDYWGQGTQVTGSS | high polyreactivity
QVQLVESGAGLVQAGGSLRLSCAASGITFGRYTMGWYRQAPGKERELVAAITNGDITYYADSVKGRFTISRDNAKNTVYLQMNSLKPEDTAVYYCAADRSFWYDYWGQGTQVTVSS | high polyreactivity
QVQLVESGAGLVQAGGSLRLSCAASGNIFVEYAKGWYRQAPGKERELVAAITNTGGRTHYADSVKGRFTISRDNAKNTVYFQMNSLKPEDTAVYDCASRRTGYYGTRDYWGQVTQVTVSS | high polyreactivity
QVQLVESGAGLVQAGGSLRLSCAASGRIFAYNAMGWYRQAPGKERELVAGITIRGGRTYYADSVKGRFTISRYNAKNTVYLQMNSLKPEDTAVYYCNARGWYEYGWGQGTQVTVSS | high polyreactivity
QVQLVESGAGLVQAGGSLRLSCAASGRIFPGYVMGWYRQAHGKERELVAAITRGGSTYYADSVKGRFTISRDNAKNTVYLQMNSLKPDDTAVYYCAAKHSHIHYNYWGQGTQVTVSS | low polyreactivity
QVQLVESGAGLVQAGGSLRLSCAASGRILSHYAMGWYRQAPGKERELVATINSGGSTYYADSVKGRFTISRDNAKNTVYLQMNSLKPEDTAVYYCAVDYAVSYAGWVLRYDYWGQATQVTVSS | low polyreactivity
QVQLVESGAGLVQAGGSLRLSCAASGRNFGTYAMGWYTQAPGTERELVAGINGSGGSTYYADSVKGRFTISRDNAKNTVFLQMNSLKPEDTAVYYCAKYNWYRAWRYGYWGQGTQVTVSS | high polyreactivity
QVQLVESGAGLVQAGGSLRLSCAASGRTFHRYAMGWYRQAPGKERELVATINRNGGSTYYADSVKGRFTISRDNAKNTVYLQMNSLKPDDTAVYYCNKRVYTGYKYSESFDRYYYWGQGTQVTVSS | high polyreactivity
QVQLVESGAGLVQAGGSLRLSCAASGRTFKTYAMAWYRQAPGKERELVAAISRDGRTYYADSVKGRFTISRDNAKNTVYLQMNSLKPEDTAVYYCAKDASVWPWWGYRGDYWGQGTQVTVSS | low polyreactivity
QVQLVESGAGLVQAGGSLRLSCAASGSIFGSYAMGRDRQAPGKERELVAGITYRGSSTYYAESVKGRFTISRDNAKNTVYLQMNSLKPEATAVYYCAADPVFDEYDYWGQGTQVTVSS | low polyreactivity
QVQLVESGAGLVQAGGSLRLSCAASGSIFWAYAMGWYRQAPGKERELVAAISRGGTTTYADSVKGRFTISRDNAKYTVYLQMNSLKPEDTAVYYCARQGTIYSYDIVYPRLDYWGQGTQVTVSS | low polyreactivity
QVQLVESGAGLVQAGGSLRLSCAASGSTFDGNVMGWYRQEPGKESELVAAISGGGSTNYADSVKGRFTISRDNAKNTVYLQMNSLKPEDTAVYYCATQYWHFPYWQYKYDYWGQGTQVTVSS | low polyreactivity
QVQLVESGAGLVQAGGSLRLSCAASGSTFGKYAMGWYTQAPGKEMELVARIDSGDGTYYADSVKGRFTISRDNAKNTVYLQMNSLKPEDTAVYYCAARYGARRLTYFWPQYARYDYWGQGTKVTVSS | high polyreactivity
QVQLVESGAGLVQAGGSLRLSCAASGSTFGSYTMGWYRQAPGKERELVAAINWSGGNTYYADSVKGRFTISRDTAKNTVYLQMNSLKPEDTAVYYCAAAFYIYGVEGDYWGQGTQVTVSS | low polyreactivity
QVQLVESGAGLVQAGGSLRLSCAASGSTFKRYAMGWYRQAPGKERELVAAITWRGGSTYYADSVKGRFTISRDNAKNTVYLQMNSLKPEDTAVYYSATDYVYRYDYWGQGTQVTVSS | high polyreactivity
QVQLVESGAGLVQAGGSLRLSCAASGSTFTLNAMGWYRQAPGKERELVADISWSSGRTYYADSVKGRFTISRDNAKNTVDLQMNSLNPEDTAVYYCATDDFWIVKFYAYYPEFDYWGQVTQVTVSS | low polyreactivity
QVQLVESGAGLVQAGGSLRLSCAASGYTFSKNTMGWYRQAPGKERELVAAISRSGGSTYYADSVKGRFTISRDNAKNTFYLQMNSLKPEDTAVYYSAKRVSTYGFSGYDYWGQGTQVTVSS | high polyreactivity
